Assay results from patent publication US10925971B2, “Methods of treating PRLR positive breast cancer” (Regeneron Pharmaceuticals, Inc., priority 2016, dated 2021).

Molecular target: T1, hPRLR-mmH (SEQ ID NO:406) (Homo sapiens, UniProt P16471)
T1 construct: this experiment was conducted with a truncated form of PRLR (i.e., hPRLR-mmH)
Assay: Epitope mapping by hydrogen/deuterium exchange with MALDI-TOF MS
Assay type: binding
Protocol: Experiments were conducted to determine the amino acid residues of PRLR with which H1H6958N2 interacts. For this purpose hydrogen/deuterium (H/D) exchange epitope mapping was carried out. A general description of the H/D exchange method is set forth in e.g., Ehring (1999) Analytical Biochemistry 267(2):252-259; and Engen and Smith (2001) Anal. Chem. 73:256A-265A.
To map the binding epitope(s) of antibody H1H6958N2 on hPRLR via H/D exchange, a construct comprising a recombinant extracellular domain of hPRLR with a C-terminal myc-myc-hexahistidine tag (hPRLR-mmH; SEQ ID NO: SEQ ID NO:406) was buffer exchanged to PBS with a final concentration of 8 mg/mL, and antibody H1H6958N2 was covalently attached to N-hydroxysuccinimide (NHS) agarose beads (GE Lifescience)
In the ‘on-solution/off-beads’ (on-exchange in solution followed by off-exchange on beads) experiment, the hPRLR was deuterated for 5 min or 10 min in PBS buffer prepared with D2O, and then bound to H1H6958N2 beads through a 2 min incubation. The hPRLR-bound beads were washed with PBS aqueous buffer (prepared with H2O) and incubated PBS buffer for half of the on-exchange time. After the off-exchange, the bound hPRLR was eluted from beads with an ice-cold low pH TFA solution. The eluted hPRLR was then digested with immobilized pepsin (Thermo Scientific) for 5 min. The resulting peptides were desalted using ZipTip® chromatographic pipette tips and immediately analyzed by UltrafleXtreme matrix assisted laser desorption ionization time of flight (MALDI-TOF)-TOF mass spectrometry (MS).
In the ‘on-beads/off-beads’ (on-exchange on beads followed by off-exchange on beads) experiment, hPRLR was first bound to H1H6958N2 beads and then incubated for 5 min or 10 min in D2O for on-exchange. The following steps (off-exchange, pepsin digestion, and MS analysis) were carried out as described for the ‘on-solution/off-beads’ procedure. The centroid values or average mass-to-charge ratios (m/z) of all the detected peptides were calculated and compared between these two sets of experiments.
The results are summarized in Table 29 which provides a comparison of the centroid m/z values for all the detected peptides identified by liquid chromatography and MS following the H/D exchange and peptic digest procedure described above. For purposes of the present Example, a positive difference (A) of at least 0.20 m/z in both experiments indicates amino acids protected by antibody binding. Segments meeting this criterion are indicated by bold text and an asterisk (*) in Table 29. [Note that, although this experiment was conducted with a truncated form of PRLR (i.e., hPRLR-mmH; SEQ ID NO: 406), residue numbering in the far left column of Table 29 has been adjusted to correspond to the amino acid sequence of the full-length PRLR protein represented by SEQ ID NO: 404.]

[1] = hPRLR peptide residues 61-71 of SEQ ID NO: 404, Experiment I 5 min on-/2.5 min off-exchange
[2] = hPRLR peptide residues 61-71 of SEQ ID NO: 404, Experiment II 10 min on-/5 min off-exchange
[3] = hPRLR peptide residues 64-71 of SEQ ID NO: 404, Experiment I 5 min on-/2.5 min off-exchange
[4] = hPRLR peptide residues 64-71 of SEQ ID NO: 404, Experiment II 10 min on-/5 min off-exchange
[5] = hPRLR peptide residues 64-72 of SEQ ID NO: 404, Experiment I 5 min on-/2.5 min off-exchange
[6] = hPRLR peptide residues 64-72 of SEQ ID NO: 404, Experiment II 10 min on-/5 min off-exchange
[7] = hPRLR peptide residues 72-94* of SEQ ID NO: 404 (* = protected by antibody binding), Experiment I 5 min on-/2.5 min off-exchange
[8] = hPRLR peptide residues 72-94* of SEQ ID NO: 404 (* = protected by antibody binding), Experiment II 10 min on-/5 min off-exchange
[9] = hPRLR peptide residues 72-95* of SEQ ID NO: 404 (* = protected by antibody binding), Experiment I 5 min on-/2.5 min off-exchange
[10] = hPRLR peptide residues 72-95* of SEQ ID NO: 404 (* = protected by antibody binding), Experiment II 10 min on-/5 min off-exchange
[11] = hPRLR peptide residues 96-101* of SEQ ID NO: 404 (* = protected by antibody binding), Experiment I 5 min on-/2.5 min off-exchange
[12] = hPRLR peptide residues 96-101* of SEQ ID NO: 404 (* = protected by antibody binding), Experiment II 10 min on-/5 min off-exchange
[13] = hPRLR peptide residues 96-102* of SEQ ID NO: 404 (* = protected by antibody binding), Experiment I 5 min on-/2.5 min off-exchange
[14] = hPRLR peptide residues 96-102* of SEQ ID NO: 404 (* = protected by antibody binding), Experiment II 10 min on-/5 min off-exchange
[15] = hPRLR peptide residues 133-147 of SEQ ID NO: 404, Experiment I 5 min on-/2.5 min off-exchange
[16] = hPRLR peptide residues 133-147 of SEQ ID NO: 404, Experiment II 10 min on-/5 min off-exchange
[17] = hPRLR peptide residues 134-147 of SEQ ID NO: 404, Experiment I 5 min on-/2.5 min off-exchange
[18] = hPRLR peptide residues 134-147 of SEQ ID NO: 404, Experiment II 10 min on-/5 min off-exchange
[19] = hPRLR peptide residues 135-147 of SEQ ID NO: 404, Experiment I 5 min on-/2.5 min off-exchange
[20] = hPRLR peptide residues 135-147 of SEQ ID NO: 404, Experiment II 10 min on-/5 min off-exchange
[21] = hPRLR peptide residues 136-147 of SEQ ID NO: 404, Experiment I 5 min on-/2.5 min off-exchange
[22] = hPRLR peptide residues 136-147 of SEQ ID NO: 404, Experiment II 10 min on-/5 min off-exchange
[23] = hPRLR peptide residues 137-147 of SEQ ID NO: 404, Experiment I 5 min on-/2.5 min off-exchange
[24] = hPRLR peptide residues 137-147 of SEQ ID NO: 404, Experiment II 10 min on-/5 min off-exchange
[25] = hPRLR peptide residues 168-179 of SEQ ID NO: 404, Experiment I 5 min on-/2.5 min off-exchange
[26] = hPRLR peptide residues 168-179 of SEQ ID NO: 404, Experiment II 10 min on-/5 min off-exchange
[27] = hPRLR peptide residues 168-180 of SEQ ID NO: 404, Experiment I 5 min on-/2.5 min off-exchange

T1 sequence (P16471 with tags, fused parts or gaps): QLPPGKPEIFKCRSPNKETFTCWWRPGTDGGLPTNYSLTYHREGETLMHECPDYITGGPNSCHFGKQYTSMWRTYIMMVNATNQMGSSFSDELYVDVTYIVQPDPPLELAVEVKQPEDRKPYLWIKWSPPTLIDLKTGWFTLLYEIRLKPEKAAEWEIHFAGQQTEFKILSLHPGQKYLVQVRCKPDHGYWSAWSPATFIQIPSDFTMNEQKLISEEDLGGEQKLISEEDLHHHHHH

B1: H1H6958N2: anti-PRLR antibody, receptor blocking, human IgG1 Fc form of H2M6958N2 of Table 1; HCVR/LCVR SEQ ID NOs 290/298 (antibody, V domains shown)
VH: QVQLVESGGGVVQPGRSLRLSCGASGFTFRNYGMQWVRQGPGKGLEWVTLISFDGNDKYYADSVKGRFTISRDNSKNTLFLQMNSLRTEDTAVYYCARGGDFDYWGQGTLVTVSS
VL: DIQMTQSPSSLSASVGDRVTITCRASQDIRKDLGWYQQKPGKAPKRLIYAASSLHSGVPSRFSGSGSGTEFTLTISSLQPEDFATYYCLQHNSYPMYTFGQGTKLEIK
epitope of PRLR with which the antibody interacts (delta centroid greater than 0.20 m/z in both experiments): amino acids 72 to 102 of SEQ ID NO: 404 | centroid m/z, on-beads/off-beads [1]: 1306.50 m/z | centroid m/z, on-solution/off beads [1]: 1306.39 m/z | Δ (centroid m/z difference) [1]: −0.10 m/z | centroid m/z, on-beads/off-beads [2]: 1306.38 m/z | centroid m/z, on-solution/off beads [2]: 1306.34 m/z | Δ (centroid m/z difference) [2]: −0.04 m/z | centroid m/z, on-beads/off-beads [3]: 1005.05 m/z | centroid m/z, on-solution/off beads [3]: 1005.13 m/z | Δ (centroid m/z difference) [3]: 0.07 m/z | centroid m/z, on-beads/off-beads [4]: 1005.18 m/z | centroid m/z, on-solution/off beads [4]: 1005.13 m/z | Δ (centroid m/z difference) [4]: −0.05 m/z | centroid m/z, on-beads/off-beads [5]: 1136.15 m/z | centroid m/z, on-solution/off beads [5]: 1136.16 m/z | Δ (centroid m/z difference) [5]: 0.01 m/z | centroid m/z, on-beads/off-beads [6]: 1136.49 m/z | centroid m/z, on-solution/off beads [6]: 1136.33 m/z | Δ (centroid m/z difference) [6]: −0.16 m/z | centroid m/z, on-beads/off-beads [7]: 2572.17 m/z | centroid m/z, on-solution/off beads [7]: 2573.91 m/z | Δ (centroid m/z difference) [7]: 1.74 m/z | centroid m/z, on-beads/off-beads [8]: 2572.12 m/z | centroid m/z, on-solution/off beads [8]: 2573.74 m/z | Δ (centroid m/z difference) [8]: 1.62 m/z | centroid m/z, on-beads/off-beads [9]: 2703.43 m/z | centroid m/z, on-solution/off beads [9]: 2705.49 m/z | Δ (centroid m/z difference) [9]: 2.06 m/z | centroid m/z, on-beads/off-beads [10]: 2703.70 m/z | centroid m/z, on-solution/off beads [10]: 2705.29 m/z | Δ (centroid m/z difference) [10]: 1.60 m/z | centroid m/z, on-beads/off-beads [11]: 870.20 m/z | centroid m/z, on-solution/off beads [11]: 870.70 m/z | centroid m/z, on-beads/off-beads [12]: 870.20 m/z | centroid m/z, on-solution/off beads [12]: 870.71 m/z | Δ (centroid m/z difference) [12]: 0.52 m/z | centroid m/z, on-beads/off-beads [13]: 1001.22 m/z | centroid m/z, on-solution/off beads [13]: 1001.59 m/z | Δ (centroid m/z difference) [13]: 0.37 m/z | centroid m/z, on-beads/off-beads [14]: 1001.14 m/z | centroid m/z, on-solution/off beads [14]: 1001.62 m/z | Δ (centroid m/z difference) [14]: 0.48 m/z | centroid m/z, on-beads/off-beads [15]: 1786.37 m/z | centroid m/z, on-solution/off beads [15]: 1786.59 m/z | Δ (centroid m/z difference) [15]: 0.22 m/z | centroid m/z, on-beads/off-beads [16]: 1786.52 m/z | centroid m/z, on-solution/off beads [16]: 1786.55 m/z | Δ (centroid m/z difference) [16]: 0.02 m/z | centroid m/z, on-beads/off-beads [17]: 1673.29 m/z | centroid m/z, on-solution/off beads [17]: 1673.36 m/z | Δ (centroid m/z difference) [17]: 0.07 m/z | centroid m/z, on-beads/off-beads [18]: 1673.39 m/z | centroid m/z, on-solution/off beads [18]: 1673.50 m/z | Δ (centroid m/z difference) [18]: 0.11 m/z | centroid m/z, on-beads/off-beads [19]: 1602.02 m/z | centroid m/z, on-solution/off beads [19]: 1602.15 m/z | Δ (centroid m/z difference) [19]: 0.13 m/z | centroid m/z, on-beads/off-beads [20]: 1602.04 m/z | centroid m/z, on-solution/off beads [20]: 1602.15 m/z | Δ (centroid m/z difference) [20]: 0.11 m/z | centroid m/z, on-beads/off-beads [21]: 1502.88 m/z | centroid m/z, on-solution/off beads [21]: 1502.85 m/z | Δ (centroid m/z difference) [21]: −0.03 m/z | centroid m/z, on-beads/off-beads [22]: 1502.88 m/z | centroid m/z, on-solution/off beads [22]: 1502.79 m/z | Δ (centroid m/z difference) [22]: −0.09 m/z | centroid m/z, on-beads/off-beads [23]: 1373.68 m/z | centroid m/z, on-solution/off beads [23]: 1373.78 m/z | Δ (centroid m/z difference) [23]: 0.09 m/z | centroid m/z, on-beads/off-beads [24]: 1373.84 m/z | centroid m/z, on-solution/off beads [24]: 1373.80 m/z | Δ (centroid m/z difference) [24]: −0.04 m/z | centroid m/z, on-beads/off-beads [25]: 1447.71 m/z | centroid m/z, on-solution/off beads [25]: 1447.73 m/z | Δ (centroid m/z difference) [25]: 0.02 m/z | centroid m/z, on-beads/off-beads [26]: 1447.78 m/z | centroid m/z, on-solution/off beads [26]: 1447.76 m/z | Δ (centroid m/z difference) [26]: −0.02 m/z | centroid m/z, on-beads/off-beads [27]: 1633.66 m/z | centroid m/z, on-solution/off beads [27]: 1633.59 m/z
